Source: PMC8931191

Molecular target: 3HA-MCHR1 (melanin-concentrating hormone receptor 1) (mouse) (UniProt Q8JZL2)
UniProt Q8JZL2, sequence (Q8JZL2 whole entry): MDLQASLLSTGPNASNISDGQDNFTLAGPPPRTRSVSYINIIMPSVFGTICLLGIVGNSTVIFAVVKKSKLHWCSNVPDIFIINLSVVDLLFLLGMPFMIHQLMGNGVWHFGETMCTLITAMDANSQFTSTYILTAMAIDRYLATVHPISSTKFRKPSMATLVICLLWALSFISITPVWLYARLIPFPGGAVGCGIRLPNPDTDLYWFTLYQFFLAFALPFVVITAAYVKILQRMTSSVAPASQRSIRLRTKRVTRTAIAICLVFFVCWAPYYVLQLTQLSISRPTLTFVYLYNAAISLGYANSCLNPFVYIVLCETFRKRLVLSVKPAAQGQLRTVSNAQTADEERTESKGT

- LogEC50 of MCH (10^-11 to 10^-6 M), NFAT-luciferase Ca2+ reporter in HEK293T cells with MCHR1 alone: -8.15 log M
- LogEC50 of MCH, NFAT-luciferase Ca2+ reporter in HEK293T cells with MCHR1 and MRAP2 WT co-transfected (1:9): -7.06 log M
- LogEC50 of MCH, NFAT-luciferase Ca2+ reporter in HEK293T cells with MCHR1 and MRAP2 t97 co-transfected (1:9): -7.34 log M
- LogEC50 of MCH, NFAT-luciferase Ca2+ reporter in HEK293T cells with MCHR1 and MRAP2 t118 co-transfected (1:9): -7.59 log M
- LogEC50 of MCH, NFAT-luciferase Ca2+ reporter in HEK293T cells with MCHR1 and MRAP2 t143 co-transfected (1:9): -7.6 log M
- LogEC50 of MCH, NFAT-luciferase Ca2+ reporter in HEK293T cells with MCHR1 and MRAP2 Δ4–11 co-transfected (1:9): -7.24 log M
- LogEC50 of MCH, NFAT-luciferase Ca2+ reporter in HEK293T cells with MCHR1 and MRAP2 Δ12–25 co-transfected (1:9): -6.76 log M
- LogEC50 of MCH, NFAT-luciferase Ca2+ reporter in HEK293T cells with MCHR1 and MRAP2 Δ26–35 co-transfected (1:9): -7.55 log M
- LogEC50 of MCH, NFAT-luciferase Ca2+ reporter in HEK293T cells with MCHR1 and MRAP2 Δ36–45 co-transfected (1:9): -6.64 log M
- LogEC50 of MCH, NFAT-luciferase Ca2+ reporter in HEK293T cells with MCHR1 and MRAP2 Δct co-transfected (1:9): -7.51 log M
Binder: DFDMLRCMLGRVYRPCWQV [Melanin concentrating hormone (MCH)]
